Measured values taken from the supplement of paper PMC7877785.
± gives the uncertainty stated by the source.

Experiment: self-splicing fitness, log relative to wild type (ln ratio); higher = more splicing; Tetrahymena group I intron in knt gene, E. coli kanamycin selection, DiMSum; sequences stand for … in CUCUCU…GGAGGGAAAAGUUAUCAGGCAUGCACCUGGUAGCUAGUCUUUAAACCAAUAGAUUGCAUCGGUUUAAAAGGCAAGACCGUCAAAUUGCGGGAAAGGGGUCAACAGCCGUUCAGUACCAAGUCUCAGGGGAAACUUUGAGAUGGCCUUGCAAAGGGUAUGGUAAUAAGCUGACGGACAUGGUCCUAACCACGCAGCCAAGUCCUAAGUCAACAGAUCUUCUGUUGAUAUGGAUGCAGUUCACAGACUAAAUGUCGGUCGGGGAAGAUGUAUUCUUCUCAUAAGAUAUAGUCGGACCUCUCCUUAAUGGGAGCUAGCGGAUGAAGUGAUGCAACACUGGAGCCGCUGGGAACUAAUUUGUAUGCGAAAGUAUAUUGAUUAGUUUUGGAGUACUCGUGGUCG
Method in brief: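 Library with all eight P1ex-region intron nucleotides randomised, intron inside the knt kanamycin-resistance gene on pET-22b(+), in E. coli BL21(DE3). Cells grew overnight at 37°C or 30°C on LB agar with or without 25 μg/mL kanamycin (plus 100 μg/mL carbenicillin, 50 μM IPTG, 0.2% rhamnose), in six replicate transformations. Pooled colonies were amplicon-sequenced on Illumina HiSeq 2500. DiMSum fitness is the error-weighted combination of wild-type-normalised replicate fold changes, kanamycin versus none.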

Row | Sequence | self-splicing fitness (ln) (30 °C) | self-splicing fitness (ln) (37 °C)
1 | CACAAGCAAUAUUACGCCCU | -3.12 ± 0.19 | -0.633 ± 0.13
2 | CACAAGCAAUAUUACGCGGU | -3.66 ± 0.15 | -2.04 ± 0.12
3 | CACAAGCAAUAUUACGCUAG | -2.72 ± 0.13 | -1.43 ± 0.1
4 | CACAAGCAAUAUUACGCUGU | -3.78 ± 0.17 | -2.57 ± 0.18
5 | CACAAGCAAUAUUACGCUUA | -2.27 ± 0.13 | -2.15 ± 0.13
6 | CACAAGCAAUAUUACGGACG | -0.358 ± 0.046 | 0.611 ± 0.072
7 | CACAAGCAAUAUUACGGAGC | -3.77 ± 0.29 | -3.25 ± 0.24
8 | CACAAGCAAUAUUACGGAUC | -4.63 ± 0.39 | -2.09 ± 0.13
9 | CACAAGCAAUAUUACGGCAU | -3.26 ± 0.12 | -2.33 ± 0.12
10 | CACAAGCAAUAUUACGGCCU | -4.49 ± 0.24 | -2.74 ± 0.24
11 | CACAAGCAAUAUUACGGGCG | -0.358 ± 0.06 | 0.319 ± 0.07
12 | CACAAGCAAUAUUACGGUAA | -2.26 ± 0.096 | -2.21 ± 0.12
13 | CACAAGCAAUAUUACGGUAC | -4.11 ± 0.22 | -2.03 ± 0.17
14 | CACAAGCAAUAUUACGGUUU | -3.34 ± 0.14 | -2.59 ± 0.19
15 | CACAAGCAAUAUUACGUAGU | -3.4 ± 0.12 | -1.81 ± 0.11
16 | CACAAGCAAUAUUACGUCCA | -3.23 ± 0.2 | -1.59 ± 0.12
17 | CACAAGCAAUAUUACGUCCG | -0.428 ± 0.094 | 0.252 ± 0.12
18 | CACAAGCAAUAUUACGUCGA | -2.62 ± 0.078 | -0.984 ± 0.073
19 | CACAAGCAAUAUUACGUCUU | -3.88 ± 0.17 | -2.25 ± 0.14
20 | CACAAGCAAUAUUACGUGGA | -2.95 ± 0.11 | -2.81 ± 0.13
21 | CACCAGCAAUAUUACGAACG | 0.223 ± 0.063 | 0.344 ± 0.078
22 | CACCAGCAAUAUUACGACCA | -1.94 ± 0.13 | -0.0102 ± 0.16
23 | CACCAGCAAUAUUACGAGAU | -3.87 ± 0.17 | -2.42 ± 0.16
24 | CACCAGCAAUAUUACGAUUU | -3.36 ± 0.15 | -1.52 ± 0.13

Row | Sequence | self-splicing fitness (ln) (30 °C) | self-splicing fitness (ln) (37 °C)
25 | CACCAGCAAUAUUACGCAAU | -4.25 ± 0.18 | -4.19 ± 0.16
26 | CACCAGCAAUAUUACGCAUU | -2.6 ± 0.086 | -1.86 ± 0.1
27 | CACCAGCAAUAUUACGCCCA | -1.72 ± 0.099 | -1.71 ± 0.13
28 | CACCAGCAAUAUUACGCGGU | -3.67 ± 0.12 | -3.31 ± 0.15
29 | CACCAGCAAUAUUACGCGUG | -3.74 ± 0.16 | -2.44 ± 0.13
30 | CACCAGCAAUAUUACGCUAA | -2.78 ± 0.13 | -2.33 ± 0.16
31 | CACCAGCAAUAUUACGCUCG | -0.247 ± 0.062 | 0.219 ± 0.087
32 | CACCAGCAAUAUUACGGAAU | -2.97 ± 0.14 | -2.18 ± 0.16
33 | CACCAGCAAUAUUACGGAUA | -1.42 ± 0.065 | -1.18 ± 0.069
34 | CACCAGCAAUAUUACGGGGC | -4.45 ± 0.22 | -1.29 ± 0.14
35 | CACCAGCAAUAUUACGUAUU | -3.78 ± 0.15 | -2.7 ± 0.16
36 | CACCAGCAAUAUUACGUCCA | -3.43 ± 0.26 | -2.26 ± 0.2
37 | CACCAGCAAUAUUACGUUAA | -3.35 ± 0.095 | -2.37 ± 0.11
38 | CACCAGCAAUAUUACGUUCG | -0.281 ± 0.049 | -0.196 ± 0.062
39 | CACCAGCAAUAUUACGUUUA | -3.33 ± 0.16 | -2.47 ± 0.13
40 | CACGAGCAAUAUUACGACUG | -2.46 ± 0.1 | -0.773 ± 0.12
41 | CACGAGCAAUAUUACGAGGC | -3.19 ± 0.26 | -1.81 ± 0.24
42 | CACGAGCAAUAUUACGAGUA | -2.53 ± 0.16 | -2.11 ± 0.22
43 | CACGAGCAAUAUUACGAUUC | -3.44 ± 0.15 | -2.49 ± 0.17
44 | CACGAGCAAUAUUACGCAAA | -3.96 ± 0.33 | -2.08 ± 0.19
45 | CACGAGCAAUAUUACGCAAC | -1.88 ± 0.44 | -2.56 ± 0.36
46 | CACGAGCAAUAUUACGCUAC | – | -2.5 ± 0.37
47 | CACGAGCAAUAUUACGGACA | -3.03 ± 0.22 | -2.9 ± 0.22
48 | CACGAGCAAUAUUACGGACG | -1.34 ± 0.075 | -0.15 ± 0.1

Row | Sequence | self-splicing fitness (ln) (30 °C) | self-splicing fitness (ln) (37 °C)
49 | CACGAGCAAUAUUACGGCAA | -3.69 ± 0.27 | -2.09 ± 0.14
50 | CACGAGCAAUAUUACGGGGG | -3.04 ± 0.19 | -2.52 ± 0.25
51 | CACGAGCAAUAUUACGGGUG | -3.79 ± 0.21 | -2.25 ± 0.18
52 | CACGAGCAAUAUUACGGUGC | -3.91 ± 0.37 | -2.76 ± 0.28
53 | CACGAGCAAUAUUACGUCAG | -3.42 ± 0.13 | -2.32 ± 0.11
54 | CACGAGCAAUAUUACGUCGG | -2.27 ± 0.11 | -2.16 ± 0.17
55 | CACGAGCAAUAUUACGUCUC | -2.49 ± 0.27 | -3.63 ± 0.34
56 | CACGAGCAAUAUUACGUGAG | -4.08 ± 0.19 | -2.38 ± 0.19
57 | CACGAGCAAUAUUACGUGGU | -3.86 ± 0.24 | -2.25 ± 0.18
58 | CACGAGCAAUAUUACGUGUA | -3.1 ± 0.21 | -2.88 ± 0.2
59 | CACUAGCAAUAUUACGAGUC | -2.82 ± 0.21 | -2.01 ± 0.19
60 | CACUAGCAAUAUUACGCACA | -0.953 ± 0.094 | -0.695 ± 0.08
61 | CACUAGCAAUAUUACGCAGA | -2.54 ± 0.19 | -2.16 ± 0.19
62 | CACUAGCAAUAUUACGCAGU | -4.15 ± 0.42 | -2.78 ± 0.33
63 | CACUAGCAAUAUUACGCCGG | -0.975 ± 0.073 | -0.471 ± 0.1
64 | CACUAGCAAUAUUACGCGCA | -2.52 ± 0.16 | -1.85 ± 0.2
65 | CACUAGCAAUAUUACGCUCA | -2.66 ± 0.21 | -2.08 ± 0.17
66 | CACUAGCAAUAUUACGCUCU | -2.46 ± 0.18 | -0.207 ± 0.13
67 | CACUAGCAAUAUUACGGCAA | -4.1 ± 0.42 | -2.08 ± 0.18
68 | CACUAGCAAUAUUACGGCCC | – | -1.71 ± 0.46
69 | CACUAGCAAUAUUACGGGAA | -2.2 ± 0.18 | -2.29 ± 0.17
70 | CACUAGCAAUAUUACGGGUG | -4.03 ± 0.36 | -2.57 ± 0.21
71 | CACUAGCAAUAUUACGGUGA | -3.47 ± 0.21 | -2.22 ± 0.18
72 | CACUAGCAAUAUUACGGUGC | -2.24 ± 0.22 | -2.43 ± 0.35

Row | Sequence | self-splicing fitness (ln) (30 °C) | self-splicing fitness (ln) (37 °C)
73 | CACUAGCAAUAUUACGUCCU | -2.36 ± 0.13 | -1.24 ± 0.18
74 | CACUAGCAAUAUUACGUCUC | -4.18 ± 0.26 | -2.43 ± 0.2
75 | CACUAGCAAUAUUACGUGUC | -3.71 ± 0.14 | -2.93 ± 0.15
76 | CACUAGCAAUAUUACGUUUC | -4.29 ± 0.3 | -1.98 ± 0.29
77 | CAGAAGCAAUAUUACGAAGU | -3.9 ± 0.37 | -2.48 ± 0.26
78 | CAGAAGCAAUAUUACGACAU | -3.128 ± 0.02 | -1.87 ± 0.034
79 | CAGAAGCAAUAUUACGACCG | 0.169 ± 0.12 | 0.634 ± 0.15
80 | CAGAAGCAAUAUUACGACUG | -3.23 ± 0.21 | -2.48 ± 0.19
81 | CAGAAGCAAUAUUACGAUGC | -4.82 ± 0.42 | -2.92 ± 0.35
82 | CAGAAGCAAUAUUACGAUUC | – | -1.98 ± 0.18
83 | CAGAAGCAAUAUUACGCCAG | -0.586 ± 0.072 | -0.605 ± 0.12
84 | CAGAAGCAAUAUUACGGCAA | -2.48 ± 0.22 | -1.25 ± 0.19
85 | CAGAAGCAAUAUUACGGUAU | -3.21 ± 0.19 | -2.47 ± 0.22
86 | CAGAAGCAAUAUUACGGUUG | -1.2 ± 0.069 | -1.08 ± 0.098
87 | CAGAAGCAAUAUUACGUAAG | -0.12 ± 0.057 | 0.772 ± 0.074
88 | CAGAAGCAAUAUUACGUAUA | -3.84 ± 0.21 | -1.84 ± 0.14
89 | CAGAAGCAAUAUUACGUCAA | -2.46 ± 0.27 | -2.24 ± 0.26
90 | CAGAAGCAAUAUUACGUGAA | -3.07 ± 0.13 | -1.16 ± 0.12
91 | CAGAAGCAAUAUUACGUGGG | -3.34 ± 0.17 | -2.6 ± 0.16
92 | CAGAAGCAAUAUUACGUGUG | -3.01 ± 0.074 | -2.19 ± 0.082
93 | CAGAAGCAAUAUUACGUUCA | -2.03 ± 0.14 | -0.728 ± 0.1
94 | CAGAAGCAAUAUUACGUUGA | -2.84 ± 0.2 | -1.53 ± 0.15
95 | CAGAAGCAAUAUUACGUUGU | -3.38 ± 0.13 | -2.81 ± 0.15
96 | CAGCAGCAAUAUUACGAAGA | -2.72 ± 0.31 | -2.6 ± 0.38
